# In publication PMC9924070 (2021):
# B1: humVHH (VHH)
# VHH: EVQLVESGGGLVQPGGSLRLSCAASGRTFSEYAMGWFRQAPGKEREFVATISWSGGSTYYTDSVKGRFTISRDNAKNTVYLQMNSLRPEDTAVYYCAAAGLGTVVSEWDYDYDYWGQGTLVTVSS
# B2: humVHH_S56A/LALAPG-Fc (Fc fusion)
# chain: EVQLVESGGGLVQPGGSLRLSCAASGRTFSEYAMGWFRQAPGKEREFVATISWSGGATYYTDSVKGRFTISRDNAKNTVYLQMNSLRPEDTAVYYCAAAGLGTVVSEWDYDYDYWGQGTLVTVSS
# B3: humVHH_S56A (VHH)
# VHH: EVQLVESGGGLVQPGGSLRLSCAASGRTFSEYAMGWFRQAPGKEREFVATISWSGGATYYTDSVKGRFTISRDNAKNTVYLQMNSLRPEDTAVYYCAAAGLGTVVSEWDYDYDYWGQGTLVTVSS
# Key:
# Experiment in all cases: BLI
# [1] = target: T1, monomeric human Fc-fused SARS-CoV-2_RBD-SD1 (SARS-CoV-2)
# [2] = target: T1, monomeric human Fc-fused …; remark: listed apart in the source
# [3] = target: T2, Mouse IgG1 Fc-fused SARS-CoV-2 RBD (SARS-CoV-2, UniProt P0DTC2)
# [4] = target: T2, Mouse IgG1 Fc-fused SARS-CoV-2 RBD; remark: listed apart in the source
Binder,koff [1] [s⁻¹],Kd [2] [nM],Kd [3] [nM],koff [4] [s⁻¹]
B1,0.088,63,,
B2,,,0.0477,8.16e-05
B3,0.023,8.3,,
